# Results taken from publication PMC8669613.
# pEC50: −log10 of the molar value. Like-named read-outs stand apart in the source and are kept apart here.
# What was measured:
# [1] = biological target: HA-mCherry-tagged SdhA (Legionella pneumophila); test: co-IP
# [2] = biological target: His-tagged ASH/RhoGAP domain of OCRL (536aa-901aa) (human) (UniProt Q01968); test: ELISA
# [3] = biological target: His-tagged ASH/RhoGAP domain of OCRL (536aa-901aa) (human) (UniProt Q01968); test: ELISA; remark: listed apart in the source
# [4] = biological target: His-tagged ASH/RhoGAP domain of OCRL (536aa-901aa) (human) (UniProt Q01968); test: ELISA; remark: listed apart in the source
# His-tagged ASH/RhoGAP domain of OCRL (536aa-901aa) (human), sequence (Q01968 536-901): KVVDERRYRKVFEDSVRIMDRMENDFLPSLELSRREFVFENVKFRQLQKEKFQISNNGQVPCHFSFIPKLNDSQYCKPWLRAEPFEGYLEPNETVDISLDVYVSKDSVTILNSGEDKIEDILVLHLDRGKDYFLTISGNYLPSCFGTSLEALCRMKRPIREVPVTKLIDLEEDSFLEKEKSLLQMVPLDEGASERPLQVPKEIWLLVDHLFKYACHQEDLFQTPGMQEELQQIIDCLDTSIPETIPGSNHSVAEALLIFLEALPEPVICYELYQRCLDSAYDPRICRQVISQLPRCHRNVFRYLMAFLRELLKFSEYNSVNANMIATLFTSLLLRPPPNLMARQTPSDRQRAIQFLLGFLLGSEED
# GFP-tagged, full-length OCRL, sequence (Q01968 whole entry): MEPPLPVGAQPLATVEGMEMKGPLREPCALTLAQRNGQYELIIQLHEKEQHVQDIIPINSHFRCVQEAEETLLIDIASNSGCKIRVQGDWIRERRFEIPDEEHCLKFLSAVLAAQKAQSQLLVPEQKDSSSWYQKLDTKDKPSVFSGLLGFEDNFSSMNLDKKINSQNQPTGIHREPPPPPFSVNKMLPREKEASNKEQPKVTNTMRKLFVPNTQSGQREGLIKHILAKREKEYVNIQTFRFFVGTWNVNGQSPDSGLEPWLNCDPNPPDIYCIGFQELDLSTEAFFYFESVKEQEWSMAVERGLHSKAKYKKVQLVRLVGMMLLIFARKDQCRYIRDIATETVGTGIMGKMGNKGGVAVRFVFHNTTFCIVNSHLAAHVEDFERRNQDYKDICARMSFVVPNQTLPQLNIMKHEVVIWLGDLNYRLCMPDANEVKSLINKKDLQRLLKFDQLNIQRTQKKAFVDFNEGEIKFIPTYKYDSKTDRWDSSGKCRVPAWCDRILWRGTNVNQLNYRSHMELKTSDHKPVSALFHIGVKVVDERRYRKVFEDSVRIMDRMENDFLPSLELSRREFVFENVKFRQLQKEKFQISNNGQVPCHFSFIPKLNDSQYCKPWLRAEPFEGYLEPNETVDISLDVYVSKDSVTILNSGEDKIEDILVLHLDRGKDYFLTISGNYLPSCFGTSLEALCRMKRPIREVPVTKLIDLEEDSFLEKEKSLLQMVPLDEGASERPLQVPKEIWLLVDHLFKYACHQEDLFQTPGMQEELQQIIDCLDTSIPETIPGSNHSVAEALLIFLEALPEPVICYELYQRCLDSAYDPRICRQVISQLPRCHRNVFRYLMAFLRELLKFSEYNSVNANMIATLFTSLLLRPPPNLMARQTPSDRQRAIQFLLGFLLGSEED
# AP complex beta subunit, sequence (P63010 whole entry, one chain of several): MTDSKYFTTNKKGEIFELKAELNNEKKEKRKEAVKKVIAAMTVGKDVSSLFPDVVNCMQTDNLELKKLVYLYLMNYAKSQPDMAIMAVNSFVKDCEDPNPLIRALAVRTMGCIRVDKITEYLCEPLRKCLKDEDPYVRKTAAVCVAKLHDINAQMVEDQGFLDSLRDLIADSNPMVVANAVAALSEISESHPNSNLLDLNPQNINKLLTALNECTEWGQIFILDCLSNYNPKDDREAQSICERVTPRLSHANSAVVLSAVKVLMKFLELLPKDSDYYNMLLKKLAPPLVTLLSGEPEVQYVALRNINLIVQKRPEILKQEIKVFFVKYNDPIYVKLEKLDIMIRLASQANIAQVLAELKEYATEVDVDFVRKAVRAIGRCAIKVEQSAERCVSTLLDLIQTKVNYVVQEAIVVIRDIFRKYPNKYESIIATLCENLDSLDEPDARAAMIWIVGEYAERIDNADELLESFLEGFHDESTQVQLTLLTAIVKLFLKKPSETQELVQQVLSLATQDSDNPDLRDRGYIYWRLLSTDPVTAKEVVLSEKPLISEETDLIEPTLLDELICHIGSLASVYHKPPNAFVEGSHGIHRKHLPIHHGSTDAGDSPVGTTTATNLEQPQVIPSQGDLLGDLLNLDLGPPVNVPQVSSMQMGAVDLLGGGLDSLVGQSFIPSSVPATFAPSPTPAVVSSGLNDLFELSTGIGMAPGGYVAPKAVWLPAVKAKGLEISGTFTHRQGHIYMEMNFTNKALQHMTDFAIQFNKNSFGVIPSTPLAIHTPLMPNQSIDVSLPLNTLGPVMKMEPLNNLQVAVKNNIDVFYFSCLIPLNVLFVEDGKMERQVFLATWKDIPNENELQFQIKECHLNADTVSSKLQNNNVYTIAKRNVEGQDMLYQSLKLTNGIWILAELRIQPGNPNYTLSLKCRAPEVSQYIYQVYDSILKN
Substance,fold co-precipitation above the HA-mCherry control [1] [fold],pEC50 [2],pEC50 [3],pEC50 [4]
AP complex beta subunit (from UniProt P63010 1-937) (natural protein),29.5,–,–,–
"GFP-tagged, full-length OCRL (from UniProt Q01968 1-901) (natural protein)",27.5,–,–,–
GST-SdhA-CBM2 (1029-1260aa) (from UniProt Q6RCQ3 1029-1260) (domain or fragment),–,7.09,7.06,–
GST-SdhA-CBM2A (1029-1080aa) (from UniProt Q6RCQ3 1029-1080) (domain or fragment),–,7.57,–,8.09
